Laboratory results reported in paper PMC8789049, “Regulation of AR mRNA translation in response to acute AR pathway inhibition”.

T1: YTHDF3 (UniProt Q7Z739 1-585)
T1 sequence: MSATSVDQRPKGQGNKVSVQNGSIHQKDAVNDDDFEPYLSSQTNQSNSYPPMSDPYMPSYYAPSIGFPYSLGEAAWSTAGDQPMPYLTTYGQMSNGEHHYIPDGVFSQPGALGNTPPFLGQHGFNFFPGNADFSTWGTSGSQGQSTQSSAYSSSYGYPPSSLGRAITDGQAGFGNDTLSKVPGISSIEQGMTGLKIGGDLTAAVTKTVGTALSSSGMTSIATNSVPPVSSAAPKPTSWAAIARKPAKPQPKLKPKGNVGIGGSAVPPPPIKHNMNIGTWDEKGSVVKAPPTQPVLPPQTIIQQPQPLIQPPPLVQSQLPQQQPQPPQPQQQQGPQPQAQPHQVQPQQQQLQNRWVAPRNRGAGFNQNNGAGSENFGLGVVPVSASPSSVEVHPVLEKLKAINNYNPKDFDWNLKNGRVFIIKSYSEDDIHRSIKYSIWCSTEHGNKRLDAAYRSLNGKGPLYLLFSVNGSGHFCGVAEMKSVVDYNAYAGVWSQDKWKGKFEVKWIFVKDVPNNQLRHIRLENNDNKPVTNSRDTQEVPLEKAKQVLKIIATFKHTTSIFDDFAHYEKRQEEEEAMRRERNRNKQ

B1: 7301-m6A (ssRNA)
RNA: GGAUAUUUUGAAGGACUGUCAUAUAUCUUU
modifications: m6A in GGm6ACU
B2: 8953-m6A (ssRNA)
RNA: AACUCAAUGGAACUGACUGAGAUUUACCAC
modifications: m6A in GAm6ACU
B3: 8953-UM (ssRNA)
RNA: B2 RNA
B4: 6908-UM (ssRNA)
RNA: CCUGUGAGGGACUGGCCACUCAGACCCACU
B5: 7301-UM (ssRNA)
RNA: B1 RNA
B6: 6908-m6A (ssRNA)
RNA: B4 RNA
modifications: m6A in GGm6ACU

How the values were obtained:
YTHDF3 = molecular target: T1, YTHDF3; experiment: EMSA; REMSA: 6.25 nM biotin probe, 100 mM HEPES pH 7.3, 200 mM KCl, 10 mM MgCl2, 10 mM DTT, 5% glycerol, 2 ug tRNA, 20 ul, 30 min, temperature not stated; 6% native PAGE in 0.5x TBE; conditions: protein: recombinant; tags: His-tag (pET-28a(+)-TEV); label: biotin
G3BP1 = G3BP1 (UniProt Q13283 1-466); experiment: as above; conditions: protein: recombinant; tags: His-tag (pET-28a(+)-TEV); chain copies: 2; label: biotin
G3BP1, sequence (Q13283 whole entry): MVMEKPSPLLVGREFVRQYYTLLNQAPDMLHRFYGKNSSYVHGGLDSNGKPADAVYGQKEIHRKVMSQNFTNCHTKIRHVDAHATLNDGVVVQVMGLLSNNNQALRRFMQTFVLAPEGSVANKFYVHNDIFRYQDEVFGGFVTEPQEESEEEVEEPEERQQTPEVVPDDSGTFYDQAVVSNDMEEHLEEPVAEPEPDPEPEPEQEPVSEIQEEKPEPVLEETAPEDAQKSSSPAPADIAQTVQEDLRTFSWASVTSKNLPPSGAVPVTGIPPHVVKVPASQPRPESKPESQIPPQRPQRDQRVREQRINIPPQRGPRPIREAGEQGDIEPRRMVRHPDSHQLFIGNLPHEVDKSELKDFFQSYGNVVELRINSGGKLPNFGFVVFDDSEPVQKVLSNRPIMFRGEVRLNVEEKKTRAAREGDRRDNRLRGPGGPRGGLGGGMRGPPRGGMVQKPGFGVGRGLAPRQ

| Binder | binding result (YTHDF3) | binding result (G3BP1) |
| --- | --- | --- |
| B1 | binds | – |
| B2 | binds | – |
| B3 | no binding | binds |
| B4 | no binding | binds |
| B5 | no binding | binds |
| B6 | binds | – |
